According to patent publication US5834290:

Biological target: stratum corneum chymotryptic enzyme (SCCE), native, from human plantar stratum corneum (human)

hydrolysis of S-2586 by the proteinase associated with plantar stratum corneum cells, Activity (%): 6 % activity
Substance: soybean trypsin inhibitor (SBTI) (from UniProt P01070)
